Assay results reported in patent publication US20240261333A1, “NOVEL TARGETS FOR ENHANCING ANTI-TUMOR IMMUNITY” (THE BROAD INSTITUTE, INC., priority 2021, published 2024).

Tests used:
SAMM50 (human) = SAMM50 (human) (UniProt Q9Y512); test: co-IP, IgG control, lysate of cells with N-FLAG B3GNT2; mass spectrometry
HADHB (human) = HADHB (human) (UniProt P55084); test: as above
MYH11 (human) = MYH11 (human) (UniProt P35749); test: as above
RPL10 (human) = RPL10 (human) (UniProt P27635); test: as above
DNAJC3 (human) = DNAJC3 (human) (UniProt Q13217); test: as above
Sequence of DNAJC3 (human) (Q13217 32-504 limits assumed): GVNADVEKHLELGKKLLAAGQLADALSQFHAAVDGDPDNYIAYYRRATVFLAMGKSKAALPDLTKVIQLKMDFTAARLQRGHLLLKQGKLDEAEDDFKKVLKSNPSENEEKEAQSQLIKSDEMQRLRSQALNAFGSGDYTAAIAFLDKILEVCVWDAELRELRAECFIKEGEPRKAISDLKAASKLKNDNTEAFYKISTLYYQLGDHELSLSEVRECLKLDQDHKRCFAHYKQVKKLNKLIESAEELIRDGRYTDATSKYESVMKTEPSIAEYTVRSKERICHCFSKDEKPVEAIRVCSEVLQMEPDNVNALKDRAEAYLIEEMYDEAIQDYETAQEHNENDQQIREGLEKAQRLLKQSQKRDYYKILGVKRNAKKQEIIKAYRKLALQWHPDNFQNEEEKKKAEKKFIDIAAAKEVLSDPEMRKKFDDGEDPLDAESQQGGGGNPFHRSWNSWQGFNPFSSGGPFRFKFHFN

RPL4 (human) = RPL4 (human) (UniProt P36578); test: as above
KRT4 (human) = KRT4 (human) (UniProt P19013); test: as above
FUBP3 (human) = FUBP3 (human) (UniProt Q96I24); test: as above
HSPA8 (human) = HSPA8 (human) (UniProt P11142); test: as above
ATXN2 (human) = ATXN2 (human) (UniProt Q99700); test: as above
NUFIP2 (human) = NUFIP2 (human) (UniProt Q7Z417); test: as above
ARPC4 (human) = ARPC4 (human) (UniProt P59998); test: as above
LSM12 (human) = LSM12 (human) (UniProt Q3MHD2); test: as above
Sequence of LSM12 (human) (Q3MHD2 2-195 limits assumed): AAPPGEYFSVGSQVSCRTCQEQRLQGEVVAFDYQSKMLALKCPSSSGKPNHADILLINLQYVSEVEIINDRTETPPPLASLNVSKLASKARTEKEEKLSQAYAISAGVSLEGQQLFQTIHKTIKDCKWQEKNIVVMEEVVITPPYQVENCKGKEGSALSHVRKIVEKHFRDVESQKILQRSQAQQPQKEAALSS

PRRC2A (human) = PRRC2A (human) (UniProt P48634); test: as above
HNRNPA2B1 (human) = HNRNPA2B1 (human) (UniProt P22626); test: as above
Sequence of HNRNPA2B1 (human) (P22626 other isoform, or with tags, fused parts or gaps limits assumed): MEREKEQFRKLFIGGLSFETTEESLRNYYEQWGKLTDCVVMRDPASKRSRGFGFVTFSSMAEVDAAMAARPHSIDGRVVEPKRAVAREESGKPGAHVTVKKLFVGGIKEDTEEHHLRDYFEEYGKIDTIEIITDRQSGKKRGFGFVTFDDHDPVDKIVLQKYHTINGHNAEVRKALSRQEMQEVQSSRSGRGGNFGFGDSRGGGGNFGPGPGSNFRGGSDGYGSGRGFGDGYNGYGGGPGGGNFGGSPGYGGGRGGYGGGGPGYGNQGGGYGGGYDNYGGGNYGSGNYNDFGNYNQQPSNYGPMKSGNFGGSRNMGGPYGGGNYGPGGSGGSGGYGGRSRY

RBM39 (human) = RBM39 (human) (UniProt Q14498); test: as above
Sequence of RBM39 (human) (Q14498 other isoform, or with tags, fused parts or gaps limits assumed): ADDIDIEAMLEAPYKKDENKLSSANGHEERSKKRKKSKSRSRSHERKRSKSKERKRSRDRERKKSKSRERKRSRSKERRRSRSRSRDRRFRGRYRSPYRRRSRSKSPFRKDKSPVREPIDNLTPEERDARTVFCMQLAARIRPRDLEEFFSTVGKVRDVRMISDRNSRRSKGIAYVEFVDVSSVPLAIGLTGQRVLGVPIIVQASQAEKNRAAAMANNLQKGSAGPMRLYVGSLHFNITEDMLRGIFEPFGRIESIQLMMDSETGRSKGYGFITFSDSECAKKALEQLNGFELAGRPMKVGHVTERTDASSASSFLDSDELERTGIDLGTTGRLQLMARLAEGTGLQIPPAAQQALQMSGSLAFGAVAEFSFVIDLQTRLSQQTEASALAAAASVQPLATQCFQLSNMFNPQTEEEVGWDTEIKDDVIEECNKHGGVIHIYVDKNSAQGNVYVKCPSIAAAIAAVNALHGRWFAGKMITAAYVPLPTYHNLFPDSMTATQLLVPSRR

RPL18 (human) = RPL18 (human) (UniProt Q07020); test: as above
RPS3 (human) = RPS3 (human) (UniProt P23396); test: as above
UBAP2L (human) = UBAP2L (human) (UniProt Q14157); test: as above
Sequence of UBAP2L (human) (Q14157 whole entry): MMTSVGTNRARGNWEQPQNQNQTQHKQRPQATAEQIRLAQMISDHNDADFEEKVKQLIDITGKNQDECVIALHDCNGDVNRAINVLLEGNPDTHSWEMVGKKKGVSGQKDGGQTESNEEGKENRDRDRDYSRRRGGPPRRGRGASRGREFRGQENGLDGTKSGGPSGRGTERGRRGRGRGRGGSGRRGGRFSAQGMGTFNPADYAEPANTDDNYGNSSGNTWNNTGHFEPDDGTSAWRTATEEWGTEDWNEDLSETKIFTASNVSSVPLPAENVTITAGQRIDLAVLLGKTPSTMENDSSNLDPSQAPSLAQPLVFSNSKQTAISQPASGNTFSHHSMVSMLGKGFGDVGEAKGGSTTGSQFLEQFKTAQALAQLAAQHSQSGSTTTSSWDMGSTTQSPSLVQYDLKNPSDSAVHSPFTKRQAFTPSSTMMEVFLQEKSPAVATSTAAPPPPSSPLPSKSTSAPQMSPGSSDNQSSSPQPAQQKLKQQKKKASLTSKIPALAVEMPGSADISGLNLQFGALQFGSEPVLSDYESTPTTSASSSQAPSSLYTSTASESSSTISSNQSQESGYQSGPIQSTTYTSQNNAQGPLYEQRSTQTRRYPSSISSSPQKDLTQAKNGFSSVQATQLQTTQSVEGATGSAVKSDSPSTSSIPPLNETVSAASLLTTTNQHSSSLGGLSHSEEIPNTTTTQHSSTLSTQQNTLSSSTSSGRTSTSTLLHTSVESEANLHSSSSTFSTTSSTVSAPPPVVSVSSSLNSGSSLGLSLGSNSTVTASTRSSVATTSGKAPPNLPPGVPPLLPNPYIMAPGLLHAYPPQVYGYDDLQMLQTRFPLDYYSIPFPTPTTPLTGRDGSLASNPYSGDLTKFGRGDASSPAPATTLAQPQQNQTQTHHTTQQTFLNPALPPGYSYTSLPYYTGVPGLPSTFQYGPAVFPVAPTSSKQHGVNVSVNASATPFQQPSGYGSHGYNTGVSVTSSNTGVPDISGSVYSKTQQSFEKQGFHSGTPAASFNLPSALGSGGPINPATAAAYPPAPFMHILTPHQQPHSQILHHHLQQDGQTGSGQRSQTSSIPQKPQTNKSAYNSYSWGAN

DDX5 (human) = DDX5 (human) (UniProt P17844); test: as above
LMNA (human) = LMNA (human) (UniProt P02545); test: as above
PSMB6 (human) = PSMB6 (human) (UniProt P28072); test: anti-FLAG co-IP from lysate of N-FLAG B3GNT2 cells, mass spectrometry
EEF2 (human) = EEF2 (human) (UniProt P13639); test: as above
ERP29 (human) = ERP29 (human) (UniProt P30040); test: as above
AIFM1 (human) = AIFM1 (human) (UniProt O95831); test: as above
Sequence of AIFM1 (human) (O95831 55-613 limits assumed): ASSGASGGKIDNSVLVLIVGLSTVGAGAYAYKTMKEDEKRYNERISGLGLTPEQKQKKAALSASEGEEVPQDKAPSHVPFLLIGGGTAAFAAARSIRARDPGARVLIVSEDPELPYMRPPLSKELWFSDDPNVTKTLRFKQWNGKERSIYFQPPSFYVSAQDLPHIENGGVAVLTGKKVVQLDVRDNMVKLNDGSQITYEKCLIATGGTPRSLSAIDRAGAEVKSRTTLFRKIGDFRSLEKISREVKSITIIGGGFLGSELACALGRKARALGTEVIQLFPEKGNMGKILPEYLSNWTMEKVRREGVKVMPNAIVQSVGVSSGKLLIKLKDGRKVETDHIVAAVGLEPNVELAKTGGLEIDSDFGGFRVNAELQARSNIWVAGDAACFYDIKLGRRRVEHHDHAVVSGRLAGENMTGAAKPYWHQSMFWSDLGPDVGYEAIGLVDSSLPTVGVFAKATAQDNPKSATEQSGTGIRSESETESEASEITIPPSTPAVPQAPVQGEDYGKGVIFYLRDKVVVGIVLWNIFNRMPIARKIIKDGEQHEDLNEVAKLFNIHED

ZRANB2 (human) = ZRANB2 (human) (UniProt O95218); test: as above
PSMB4 (human) = PSMB4 (human) (UniProt P28070); test: as above
Sequence of PSMB4 (human) (P28070 46-264 limits assumed): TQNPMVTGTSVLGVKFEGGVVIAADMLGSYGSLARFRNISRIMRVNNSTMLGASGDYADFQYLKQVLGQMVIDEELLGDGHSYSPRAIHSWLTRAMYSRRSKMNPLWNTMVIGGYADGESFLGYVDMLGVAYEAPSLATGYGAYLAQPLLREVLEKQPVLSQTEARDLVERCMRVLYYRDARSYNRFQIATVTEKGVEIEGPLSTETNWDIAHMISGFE

FBXO6 (human) = FBXO6 (human) (UniProt Q9NRD1); test: as above
Sequence of FBXO6 (human) (Q9NRD1 whole entry): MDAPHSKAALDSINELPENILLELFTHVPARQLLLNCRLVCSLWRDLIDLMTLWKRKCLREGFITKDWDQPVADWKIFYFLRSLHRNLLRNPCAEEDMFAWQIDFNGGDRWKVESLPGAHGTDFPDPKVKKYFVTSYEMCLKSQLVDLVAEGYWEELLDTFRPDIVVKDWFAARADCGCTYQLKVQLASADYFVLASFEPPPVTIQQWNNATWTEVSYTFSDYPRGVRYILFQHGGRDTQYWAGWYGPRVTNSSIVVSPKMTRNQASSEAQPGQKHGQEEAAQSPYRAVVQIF

HSP90AB1 (human) = HSP90AB1 (human) (UniProt P08238); test: as above
Sequence of HSP90AB1 (human) (P08238 2-724 limits assumed): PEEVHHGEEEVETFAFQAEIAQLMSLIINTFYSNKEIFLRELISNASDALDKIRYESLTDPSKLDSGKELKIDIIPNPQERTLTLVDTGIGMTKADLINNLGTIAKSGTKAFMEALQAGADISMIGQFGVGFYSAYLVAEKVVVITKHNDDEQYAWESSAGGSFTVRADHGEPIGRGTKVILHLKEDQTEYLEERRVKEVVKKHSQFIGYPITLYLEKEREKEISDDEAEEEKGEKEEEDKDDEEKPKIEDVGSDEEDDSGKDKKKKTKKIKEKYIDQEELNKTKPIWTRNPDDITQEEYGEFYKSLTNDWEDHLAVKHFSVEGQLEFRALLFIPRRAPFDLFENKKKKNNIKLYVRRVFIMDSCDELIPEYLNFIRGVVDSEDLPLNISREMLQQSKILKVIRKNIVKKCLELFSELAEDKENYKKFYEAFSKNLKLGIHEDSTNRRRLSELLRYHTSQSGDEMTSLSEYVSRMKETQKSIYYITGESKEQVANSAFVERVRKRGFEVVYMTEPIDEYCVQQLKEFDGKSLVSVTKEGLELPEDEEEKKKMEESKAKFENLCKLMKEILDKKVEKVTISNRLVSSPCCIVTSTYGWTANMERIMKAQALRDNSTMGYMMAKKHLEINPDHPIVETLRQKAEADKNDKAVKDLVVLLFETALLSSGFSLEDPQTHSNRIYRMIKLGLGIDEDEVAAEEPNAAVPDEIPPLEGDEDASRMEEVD

KPNB1 (human) = KPNB1 (human) (UniProt Q14974); test: as above
ACSL3 (human) = ACSL3 (human) (UniProt O95573); test: as above
RPS6 (human) = RPS6 (human) (UniProt P62753); test: as above
PSMA5 (human) = PSMA5 (human) (UniProt P28066); test: as above
LARP4 (human) = LARP4 (human) (UniProt Q71RC2); test: as above
LDHA (human) = LDHA (human) (UniProt P00338); test: as above
RRBP1 (human) = RRBP1 (human) (UniProt Q9P2E9); test: as above
PGAM5 (human) = PGAM5 (human) (UniProt Q96HS1); test: as above

Sequence of SAMM50 (human) (Q9Y512 whole entry): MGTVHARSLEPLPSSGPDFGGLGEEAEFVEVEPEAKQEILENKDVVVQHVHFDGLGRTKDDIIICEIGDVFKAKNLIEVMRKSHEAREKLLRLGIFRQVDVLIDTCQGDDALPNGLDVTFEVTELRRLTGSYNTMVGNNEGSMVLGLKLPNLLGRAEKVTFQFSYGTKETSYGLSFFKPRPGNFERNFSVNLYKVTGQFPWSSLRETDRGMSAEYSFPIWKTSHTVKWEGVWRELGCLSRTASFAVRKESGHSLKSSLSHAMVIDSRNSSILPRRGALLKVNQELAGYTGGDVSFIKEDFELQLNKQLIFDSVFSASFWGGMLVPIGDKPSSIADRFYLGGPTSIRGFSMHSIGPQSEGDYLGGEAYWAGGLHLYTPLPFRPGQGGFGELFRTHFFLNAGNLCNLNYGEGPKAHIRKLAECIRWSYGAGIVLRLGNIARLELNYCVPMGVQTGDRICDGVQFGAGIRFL

## IgG control (Millipore Sigma 12-371) (antibody)
SAMM50 (human)
  co-IP mass spectrometry count: 0
HADHB (human)
  co-IP mass spectrometry count: 0
MYH11 (human)
  co-IP mass spectrometry count: 3
RPL10 (human)
  co-IP mass spectrometry count: 3
DNAJC3 (human)
  co-IP mass spectrometry count: 0
RPL4 (human)
  co-IP mass spectrometry count: 11
KRT4 (human)
  co-IP mass spectrometry count: 21
FUBP3 (human)
  co-IP mass spectrometry count: 8
HSPA8 (human)
  co-IP mass spectrometry count: 16
ATXN2 (human)
  co-IP mass spectrometry count: 3
NUFIP2 (human)
  co-IP mass spectrometry count: 3
ARPC4 (human)
  co-IP mass spectrometry count: 0
LSM12 (human)
  co-IP mass spectrometry count: 2
PRRC2A (human)
  co-IP mass spectrometry count: 3
HNRNPA2B1 (human)
  co-IP mass spectrometry count: 4
RBM39 (human)
  co-IP mass spectrometry count: 5
RPL18 (human)
  co-IP mass spectrometry count: 5
RPS3 (human)
  co-IP mass spectrometry count: 13
UBAP2L (human)
  co-IP mass spectrometry count: 20
DDX5 (human)
  co-IP mass spectrometry count: 18
LMNA (human)
  co-IP mass spectrometry count: 11

## N-terminal FLAG tagged B3GNT2 (from UniProt Q9NY97 1-397) (enzyme)
PSMB6 (human)
  co-IP mass spectrometry count: 5
EEF2 (human)
  co-IP mass spectrometry count: 3
ERP29 (human)
  co-IP mass spectrometry count: 2
AIFM1 (human)
  co-IP mass spectrometry count: 5
ZRANB2 (human)
  co-IP mass spectrometry count: 5
PSMB4 (human)
  co-IP mass spectrometry count: 2
FBXO6 (human)
  co-IP mass spectrometry count: 4
HSP90AB1 (human)
  co-IP mass spectrometry count: 10
KPNB1 (human)
  co-IP mass spectrometry count: 3
ACSL3 (human)
  co-IP mass spectrometry count: 5
RPS6 (human)
  co-IP mass spectrometry count: 11
PSMA5 (human)
  co-IP mass spectrometry count: 2
LARP4 (human)
  co-IP mass spectrometry count: 0
LDHA (human)
  co-IP mass spectrometry count: 5
RRBP1 (human)
  co-IP mass spectrometry count: 2
PGAM5 (human)
  co-IP mass spectrometry count: 4
